From paper PMC5780253 (Biochimica et biophysica acta, 2017) come the findings set out here.

The data set deals with the molecule itself. In words: SDS-PAGE and Western blot of cell lysate without cross-linker. (A western blot detects proteins with antibodies after separation by electrophoresis.)

B1: human apical sodium-dependent bile acid transporter, wild type (wt-hASBT) (natural protein, UniProt Q12908 1-348, looked up)
chain: MNDPNSCVDNATVCSGASCVVPESNFNNILSVVLSTVLTILLALVMFSMGCNVEIKKFLGHIKRPWGICVGFLCQFGIMPLTGFILSVAFDILPLQAVVVLIIGCCPGGTASNILAYWVDGDMDLSVSMTTCSTLLALGMMPLCLLIYTKMWVDSGSIVIPYDNIGTSLVSLVVPVSIGMFVNHKWPQKAKIILKIGSIAGAILIVLIAVVGGILYQSAWIIAPKLWIIGTIFPVAGYSLGFLLARIAGLPWYRCRTVAFETGMQNTQLCSTIVQLSFTPEELNVVFTFPLIYSIFQLAFAAIFLGFYVAYKKCHGKNKAEIPESKENGTEPESSFYKANGGFQPDEK
modifications: N-glycosylated at Asn10 (glycosylated ~41 kDa and non-glycosylated ~37 kDa forms both seen)
Regarding B1, the stoichiometry N – broadly, the number of molecules, sites or subunits per partner or assembly – was 2.
